One may read the Kd as the constant that tells how readily two partners part at equilibrium.

Our source for the Kd values is paper doi:10.1101/2021.05.09.442808 (bioRxiv, 2021).

The target in test [1] is SARS-CoV S 2P prefusion-stabilized ectodomain trimer (SARS-CoV, Urbani (AAP13441, named for …, UniProt P59594, stabilised)). Briefly: SPR.
Test [2] concerns the target MERS-CoV S 2P prefusion-stabilized ectodomain trimer (MERS-CoV, strain of ectodomain not …, stabilised). Briefly: SPR. In general terms: In SPR one partner is held on a chip, and binding of the other changes the refractive index at the surface.

B1: S2P6 Fab fragment (Fab, V domains shown)
VH: EVQLVQSGAEVKKPGASVKVSCKASGYTFTSQYMHWVRQAPGQGLEWIGIINPSGVHTSYAQKFQGRVTLTRDTSTSTLYMELSSLRSEDTAVYYCARGSPKGAFDYWGQGTLVTVSS
VL: not shown
As for B1, the values for the dissociation constant (Kd) in test [1] and in test [2] were 7 nM and 12 nM, respectively.
